Results: paper PMC10117725, “From an Hsp90 - binding protein to a peptide drug” (microLife, 2022)

Biological target: T1, recombinant Hsp90α (human, UniProt P07900 1-732)
T1 construct: source: bought: Abcam (recombinant)
Assay: far-Western, overlay or dot blot
Details: both partners purified

B1: L13 (peptide)
peptide: GHYFVTTFY
notes: source: synthetic peptide (Apeptide, Shanghai; purity >95%)
**Q.** Does B1 bind?
**A.** Result: binds

B2: L21 (peptide)
peptide: ENFKFFGQYANLKELRK
notes: as for B1
**Q.** Does B2 bind?
**A.** Result: binds

B3: L26 (peptide)
peptide: DEIVKELRSRYNISTEKSPILKMHIDGDLKGSSVGYRKLEIDFSKRENSKLSVIEFLSYKPAKK
notes: as for B1
**Q.** Does B3 bind?
**A.** Result: binds

B4: L15 (peptide)
peptide: TAKGHYFVTTFYRNG
notes: as for B1
**Q.** Does B4 bind?
**A.** Result: binds

B5: L16 (peptide)
peptide: NYKIEMKNNKIILLD
notes: as for B1
**Q.** Does B5 bind?
**A.** Result: binds

B6: L10 (peptide)
peptide: NTRTAKGHYFVTTFYRNG
notes: as for B1
**Q.** Does B6 bind?
**A.** Result: binds
